Source: article PMC10470521, “Structural basis of a bi-functional malonyl-CoA reductase (MCR) from the photosynthetic green non-sulfur bacterium Roseiflexus castenholzii” (mBio, 2023)
Each block holds one molecule with its values, some of them ahead of it.

Columns and labels:
[1] = target: RfxMCR-C (Gly573-Val1229) (Roseiflexus castenholzii DSM 13941) (UniProt A7NN59); test: crystal structure; RfxMCR-C with NADP+ and MSA; 1.6 M sodium formate, 0.1 M Bis-tris propane pH 7.0, 16°C; P6(5)22, dimer by crystal packing; 2.3 Å
[2] = target: T1, RfxMCR-C (Roseiflexus castenholzii, UniProt A7NN59); test: X-ray crystal structure, […] Å; type: binding; conditions: ternary complex with MSA; SDR3 / ED interface
T1 construct: gene Rcas_2929; C-terminal fragment Gly573-Val1229 (SDR3-ED-SDR4), N-terminal His6 tag (pET28a), E. coli BL21(DE3)

[3] = substrate: CC(C)(COP(=O)(O)OP(=O)(O)OC[C@H]1O[C@@H](n2cnc3c(N)ncnc32)[C@H](O)[C@@H]1OP(=O)(O)O)[C@@H](O)C(=O)NCCC(=O)NCCSC(=O)CC(=O)O; test: purified protein; type: biochemical, Roseiflexus castenholzii; conditions: 0.4 mM NADPH, 5 mM MgCl2, 100 mM Tris-HCl pH 8.0, 150 mM NaCl, 50°C, apparent, overall two-step reduction
[4] = target: the molecule itself; test: SEC; gel filtration on HiLoad 16/600 Superdex 200PG; 25 mM Tris-HCl pH 8.0, 150 mM NaCl

stoichiometry N [1]: 2
Molecule: RfxMCR-C (Gly573-Val1229) (from UniProt A7NN59 573-1229) (domain or fragment)

Molecule: NC(=O)c1ccc[n+]([C@@H]2O[C@H](COP(=O)(O)OP(=O)(O)OC[C@H]3O[C@@H](n4cnc5c(N)ncnc54)[C@H](OP(=O)(O)O)[C@@H]3O)[C@@H](O)[C@H]2O)c1 [NADP^+]
X-ray crystal structure, 2.3 Å [2]: a cofactor NADP^+ and intermediate MSA were resolved at the interface between the SDR3

B1: full-length malonyl-CoA reductase from Roseiflexus castenholzii (RfxMCR) (enzyme, Roseiflexus castenholzii DSM 13941, UniProt A7NN59 1-1229, looked up)
chain: MSTVRRLEGKVALITGGAGNIGEVITRRFLAEGATVVITGRNAEKLAVYRRRLIDEERVAPERVVALRMDGSDIAQVRAGVAQIVHGGTDVPIPLHRIDILVNNAGSAGPRRRLVDIPLEPSEVQPPDSETLAQAVGNLVGITWNLTRAAAPHMPSGSSVINISTIFSRTDYYGRIAYVAPKAALNALSDGLARELGVRGIRVNTIYPGPIESERIYTMFQAMDALKGQPEGDTASGFLRMMRLSRIDQNGEVVKRFPSPVDVANTAVFLASDESAAFTGHAFEVTHGMEVPTESRTTFVSRPGLRSVDATGKVILICAGDQVDDAVALADTLRSCRATVVIGFRDPRALEKASVLLREPRHALAADMYGRPTMTAEARLVRLDPLDPRAAAQTLEQIHAELGAIHHAVVLPGQSRHAPSASLIEVDDQVVERFLHQELVGTIALARELARFWEEYPSGSSMHRVLFVSNPDDQQGNQYSHILRAAVEQLVRVWRHESEYDSVNPAHQQEGQSSAAVWANQLIRYVNNEMANLDFTCAWVAKLLGSDRRIAEINLYLPEEIVGTIGVHNPGFGWAESLFGLHMGKVALITGGSAGIGGQIGRLLALSGAHVMLAARNADQLEQMRASIVREVRDASYPDAESRVAIFPGSDVSDIDGLERLVNHTVRVFGKVDYLINNAGIAGAEEMVIDMPVDAWRHTLRANLISNYALLRRLAPQMKAAGGAYVLNVSSYFGGEKYVAIPYPNRSDYAVSKAGQRAMVESLARFLGPEIQINAIAPGPVEGERLKGAGSRPGLFMRRARLILENKRLNEVFAALLAARHEGATIADLLPDLFANDIQSIANSAAMPAPLRRLATMLRETSDAGGSAQSYLMNATIARKLLNRLENGGYITLHDRRALTVEPPEPFFTEAQIEREAIKVRDGILGMLHLQRMPTEFDVALATVFYLADRNVTGETFHPSGGLRFERTVTEGELFGKPGQQRLERLKGSVVYLIGEHLRQHLVLLARTFLDEIHVARVVLLTETTQAATDLAAELSDYEAAGRFVVIPTCGDIEGGIDRAMAEYGRPGPVISTPFRPLPDRALSARNGDWSSVLTTAEFEELVEQQITHHFRVARKAGLIEGANVTLVTPPTSARSTSEEFALANFVKTTLHALTATAGAESERTVPHVPVNQVDLTRRARSEEPRTPSEEEEELQRFVNAVLLTSAPLPTPLESRYRARIYRGNAITV
notes: malonyl-CoA reductase (MCR) of Roseiflexus castenholzii DSM 13941, gene Rcas_2929, full length Met1-Val1229; Cloned into pET20b at XhoI and NdeI; also called full-length RfxMCR; wild-type RfxMCR
Km [3]: 380 ± 80 µM | kcat [3]: 5.65 ± 0.57 s⁻¹ | kcat/Km [3]: 14800 ± 1540 M⁻¹ s⁻¹ | stoichiometry N [4]: 2

B2: RfxMCR single mutant E576A (enzyme, Roseiflexus castenholzii DSM 13941)
chain: MSTVRRLEGKVALITGGAGNIGEVITRRFLAEGATVVITGRNAEKLAVYRRRLIDEERVAPERVVALRMDGSDIAQVRAGVAQIVHGGTDVPIPLHRIDILVNNAGSAGPRRRLVDIPLEPSEVQPPDSETLAQAVGNLVGITWNLTRAAAPHMPSGSSVINISTIFSRTDYYGRIAYVAPKAALNALSDGLARELGVRGIRVNTIYPGPIESERIYTMFQAMDALKGQPEGDTASGFLRMMRLSRIDQNGEVVKRFPSPVDVANTAVFLASDESAAFTGHAFEVTHGMEVPTESRTTFVSRPGLRSVDATGKVILICAGDQVDDAVALADTLRSCRATVVIGFRDPRALEKASVLLREPRHALAADMYGRPTMTAEARLVRLDPLDPRAAAQTLEQIHAELGAIHHAVVLPGQSRHAPSASLIEVDDQVVERFLHQELVGTIALARELARFWEEYPSGSSMHRVLFVSNPDDQQGNQYSHILRAAVEQLVRVWRHESEYDSVNPAHQQEGQSSAAVWANQLIRYVNNEMANLDFTCAWVAKLLGSDRRIAEINLYLPEEIVGTIGVHNPGFGWAASLFGLHMGKVALITGGSAGIGGQIGRLLALSGAHVMLAARNADQLEQMRASIVREVRDASYPDAESRVAIFPGSDVSDIDGLERLVNHTVRVFGKVDYLINNAGIAGAEEMVIDMPVDAWRHTLRANLISNYALLRRLAPQMKAAGGAYVLNVSSYFGGEKYVAIPYPNRSDYAVSKAGQRAMVESLARFLGPEIQINAIAPGPVEGERLKGAGSRPGLFMRRARLILENKRLNEVFAALLAARHEGATIADLLPDLFANDIQSIANSAAMPAPLRRLATMLRETSDAGGSAQSYLMNATIARKLLNRLENGGYITLHDRRALTVEPPEPFFTEAQIEREAIKVRDGILGMLHLQRMPTEFDVALATVFYLADRNVTGETFHPSGGLRFERTVTEGELFGKPGQQRLERLKGSVVYLIGEHLRQHLVLLARTFLDEIHVARVVLLTETTQAATDLAAELSDYEAAGRFVVIPTCGDIEGGIDRAMAEYGRPGPVISTPFRPLPDRALSARNGDWSSVLTTAEFEELVEQQITHHFRVARKAGLIEGANVTLVTPPTSARSTSEEFALANFVKTTLHALTATAGAESERTVPHVPVNQVDLTRRARSEEPRTPSEEEEELQRFVNAVLLTSAPLPTPLESRYRARIYRGNAITV
notes: malonyl-CoA reductase (MCR) of Roseiflexus castenholzii DSM 13941, gene Rcas_2929, with E576A; source: E. coli BL21(DE3), purified following the same procedure as the wild-type protein
stoichiometry N [4]: 2

B3: RfxMCR triple mutant W574A E576A F579A (enzyme, Roseiflexus castenholzii DSM 13941)
chain: MSTVRRLEGKVALITGGAGNIGEVITRRFLAEGATVVITGRNAEKLAVYRRRLIDEERVAPERVVALRMDGSDIAQVRAGVAQIVHGGTDVPIPLHRIDILVNNAGSAGPRRRLVDIPLEPSEVQPPDSETLAQAVGNLVGITWNLTRAAAPHMPSGSSVINISTIFSRTDYYGRIAYVAPKAALNALSDGLARELGVRGIRVNTIYPGPIESERIYTMFQAMDALKGQPEGDTASGFLRMMRLSRIDQNGEVVKRFPSPVDVANTAVFLASDESAAFTGHAFEVTHGMEVPTESRTTFVSRPGLRSVDATGKVILICAGDQVDDAVALADTLRSCRATVVIGFRDPRALEKASVLLREPRHALAADMYGRPTMTAEARLVRLDPLDPRAAAQTLEQIHAELGAIHHAVVLPGQSRHAPSASLIEVDDQVVERFLHQELVGTIALARELARFWEEYPSGSSMHRVLFVSNPDDQQGNQYSHILRAAVEQLVRVWRHESEYDSVNPAHQQEGQSSAAVWANQLIRYVNNEMANLDFTCAWVAKLLGSDRRIAEINLYLPEEIVGTIGVHNPGFGAAASLAGLHMGKVALITGGSAGIGGQIGRLLALSGAHVMLAARNADQLEQMRASIVREVRDASYPDAESRVAIFPGSDVSDIDGLERLVNHTVRVFGKVDYLINNAGIAGAEEMVIDMPVDAWRHTLRANLISNYALLRRLAPQMKAAGGAYVLNVSSYFGGEKYVAIPYPNRSDYAVSKAGQRAMVESLARFLGPEIQINAIAPGPVEGERLKGAGSRPGLFMRRARLILENKRLNEVFAALLAARHEGATIADLLPDLFANDIQSIANSAAMPAPLRRLATMLRETSDAGGSAQSYLMNATIARKLLNRLENGGYITLHDRRALTVEPPEPFFTEAQIEREAIKVRDGILGMLHLQRMPTEFDVALATVFYLADRNVTGETFHPSGGLRFERTVTEGELFGKPGQQRLERLKGSVVYLIGEHLRQHLVLLARTFLDEIHVARVVLLTETTQAATDLAAELSDYEAAGRFVVIPTCGDIEGGIDRAMAEYGRPGPVISTPFRPLPDRALSARNGDWSSVLTTAEFEELVEQQITHHFRVARKAGLIEGANVTLVTPPTSARSTSEEFALANFVKTTLHALTATAGAESERTVPHVPVNQVDLTRRARSEEPRTPSEEEEELQRFVNAVLLTSAPLPTPLESRYRARIYRGNAITV
notes: malonyl-CoA reductase (MCR) of Roseiflexus castenholzii DSM 13941, gene Rcas_2929, with W574A, E576A and F579A; source: E. coli BL21(DE3), purified following the same procedure as the wild-type protein
stoichiometry N [4]: 2

B4: RfxMCR double mutant W574A E576A (enzyme, Roseiflexus castenholzii DSM 13941)
chain: MSTVRRLEGKVALITGGAGNIGEVITRRFLAEGATVVITGRNAEKLAVYRRRLIDEERVAPERVVALRMDGSDIAQVRAGVAQIVHGGTDVPIPLHRIDILVNNAGSAGPRRRLVDIPLEPSEVQPPDSETLAQAVGNLVGITWNLTRAAAPHMPSGSSVINISTIFSRTDYYGRIAYVAPKAALNALSDGLARELGVRGIRVNTIYPGPIESERIYTMFQAMDALKGQPEGDTASGFLRMMRLSRIDQNGEVVKRFPSPVDVANTAVFLASDESAAFTGHAFEVTHGMEVPTESRTTFVSRPGLRSVDATGKVILICAGDQVDDAVALADTLRSCRATVVIGFRDPRALEKASVLLREPRHALAADMYGRPTMTAEARLVRLDPLDPRAAAQTLEQIHAELGAIHHAVVLPGQSRHAPSASLIEVDDQVVERFLHQELVGTIALARELARFWEEYPSGSSMHRVLFVSNPDDQQGNQYSHILRAAVEQLVRVWRHESEYDSVNPAHQQEGQSSAAVWANQLIRYVNNEMANLDFTCAWVAKLLGSDRRIAEINLYLPEEIVGTIGVHNPGFGAAASLFGLHMGKVALITGGSAGIGGQIGRLLALSGAHVMLAARNADQLEQMRASIVREVRDASYPDAESRVAIFPGSDVSDIDGLERLVNHTVRVFGKVDYLINNAGIAGAEEMVIDMPVDAWRHTLRANLISNYALLRRLAPQMKAAGGAYVLNVSSYFGGEKYVAIPYPNRSDYAVSKAGQRAMVESLARFLGPEIQINAIAPGPVEGERLKGAGSRPGLFMRRARLILENKRLNEVFAALLAARHEGATIADLLPDLFANDIQSIANSAAMPAPLRRLATMLRETSDAGGSAQSYLMNATIARKLLNRLENGGYITLHDRRALTVEPPEPFFTEAQIEREAIKVRDGILGMLHLQRMPTEFDVALATVFYLADRNVTGETFHPSGGLRFERTVTEGELFGKPGQQRLERLKGSVVYLIGEHLRQHLVLLARTFLDEIHVARVVLLTETTQAATDLAAELSDYEAAGRFVVIPTCGDIEGGIDRAMAEYGRPGPVISTPFRPLPDRALSARNGDWSSVLTTAEFEELVEQQITHHFRVARKAGLIEGANVTLVTPPTSARSTSEEFALANFVKTTLHALTATAGAESERTVPHVPVNQVDLTRRARSEEPRTPSEEEEELQRFVNAVLLTSAPLPTPLESRYRARIYRGNAITV
notes: malonyl-CoA reductase (MCR) of Roseiflexus castenholzii DSM 13941, gene Rcas_2929, with W574A and E576A; source: E. coli BL21(DE3), purified following the same procedure as the wild-type protein
stoichiometry N [4]: 2
